B1: SmBiT-C-CaSR-WT [not stated] / LgBiT-N-AP2σ-WT [not stated] (parent)
chain 1: not shown
chain 2: YGPDQRAQKKGDIILGGLFPIHFGVAAKDQDLKSRPESVECIRYNFRGFRWLQAMIFAIEEINSSPALLPNLTLGYRIFDTCNTVSKALEATLSFVAQNKIDSLNLDEFCNCSEHIPSTIAVVGATGSGVSTAVANLLGLFYIPQVSYASSSRLLSNKNQFKSFLRTIPNDEHQATAMADIIEYFRWNWVGTIAADDDYGRPGIEKFREEAEERDICIDFSELISQYSDEEEIQHVVEVIQNSTAKVIVVFSSGPDLEPLIKEIVRRNITGKIWLASEAWASSSLIAMPQYFHVVGGTIGFALKAGQIPGFREFLKKVHPRKSVHNGFAKEFWEETFNCHLQEGAKGPLPVDTFLRGHEESGDRFSNSSTAFRPLCTGDENISSVETPYIDYTHLRISYNVYLAVYSIAHALQDIYTCLPGRGLFTNGSCADIKKVEAWQVLKHLRHLNFTNNMGEQVTFDECGDLVGNYSIINWHLSPEDGSIVFKEVGYYNVYAKKGERLFINEEKILWSGFSREVPFSNCSRDCLAGTRKGIIEGEPTCCFECVECPDGEYSDETDASACNKCPDDFWSNENHTSCIAKEIEFLSWTEPFGIALTLFAVLGIFLTAFVLGVFIKFRNTPIVKATNRELSYLLLFSLLCCFSSSLFFIGEPQDWTCRLRQPAFGISFVLCISCILVKTNRVLLVFEAKIPTSFHRKWWGLNLQFLLVFLCTFMQIVICVIWLYTAPPSSYRNQELEDEIIFITCHEGSLMALGFLIGYTCLLAAICFFFAFKSRKLPENFNEAKFITFSMLIFFIVWISFIPAYASTYGKFVSAVEVIAILAASFGLLACIFFNKIYIILFKPSRNTIEEVRCSTAAHAFKVAARATLRRSNVSRKRSSSLGGSTGSTPSSSISSKSNSEDPFPQPERQKQQQPLALTQQEQQQQPLTLPQQQRSQQQPRCKQKVIFGSGTVTFSLSFDEPQKNAMAHRNSTHQNSLEAQKSSDTLTRHEPLLPLQCGETDLDLTVQETGLQGPVGGDQRPEVEDPEELSPALVVSSSQSFVISGGGSTVTENVVNS

Variants of: B1
Experiment: NanoBiT split-luciferase
Settings: with LgBiT-N-AP2σ-WT; N = 6; read off a plot

Question: Which response does the source give for chain 2 R990A H991A E992A P993A L994A L995A here?
Answer: 3.6

Question: chain 2 L994A L995A was tested. Which response did it give?
Answer: 3.2

Same assay, conditions: with LgBiT-N-AP2σ-WT; N = 7; read off a plot

Question: For chain 2 L994A L995A, which response is on record?
Answer: 2.4

Question: chain 2 S985A was tested. Which response did it give?
Answer: 4.9

Question: How did the response turn out when chain 2 T989A was run?
Answer: 4.7

Question: For chain 2 T987A, which response is on record?
Answer: 4.9

Question: chain 2 S959A was tested. Which response did it give?
Answer: 4.8

Same assay, conditions: with LgBiT-N-AP2σ-WT; N = 10; read off a plot

Question: For chain 2 L994A L995A, which response is on record?
Answer: 2.1

Question: With chain 2 R990A as the variant, how does the response read?
Answer: 3.8

Question: With chain 2 H991A as the variant, how does the response read?
Answer: 3

Question: chain 2 P993A was tested. Which response did it give?
Answer: 4.5

Reference: PMC12159506
